Test results published in the supplement of paper PMC11908140.

B1: library; numbered along this chain (parent)
chain: MRKPRAAVGSGHRKQAASQEGRQKHAKNNSQAKPSACDGLARQPEEVVLQASVSSYHLFRDVAEVTAFRGSLLSWYDQEKRDLPWRRRAEDEMDLDRRAYAVWVSEVMLQQTQVATVINYYTGWMQKWPTLQDLASASLEEVNQLWAGLGYYSRGRRLQEGARKVVEELGGHMPRTAETLQQLLPGVGRYTAGAIASIAFGQATGVVDGNVARVLCRVRAIGADPSSTLVSQQLWGLAQQLVDPARPGDFNQAAMELGATVCTPQRPLCSQCPVESLCRARQRVEQEQLLASGSLSGSPDVEECAPNTGQCHLCLPPSEPWDQTLGVVNFPRKASRKPPREESSATCVLEQPGALGAQILLVQRPNSGLLAGLWEFPSVTWEPSEQLQRKALLQELQRWAGPLPATHLRHLGEVVHTFSHIKLTYQVYGLALEGQTPVTTVPPGARWLTQEEFHTAAVSTAMKKVFRVYQGQQPGTCMGSKRSQVSSPCSRKKPRMGQQVLDNFFRSHISTDAHSLNSAAQ

Variants of: B1
Experiment: 8OG:A repair function score (normalized; synonymous = 0, nonsense = -1) (normalized log-likelihood score); higher = more repair activity (WT-like)
Conditions: with 8OG:A DNA repair reporter (GFP) in HEK-293 MUTYH KO cells
How it was run: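 GFP+ (repair) and GFP− bins of viable mCherry+ cells were collected at 72 h from MUTYH knockout HEK-293 cells bearing lentiviral MUTYH cDNA NNN codon-scan libraries in 10 pg/ml doxycycline, co-transfected with an 8OG:A GFP repair reporter and mCherry. Tile amplicons were sequenced, and per-tile Rosace fitness scores were normalized to a repair function score anchored on synonymous and nonsense distributions. Synonymous medians were set to 0 and nonsense to -1, with variants under 300 counts per million at the start removed.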
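Also: cells sorted at 72 h after reporter transfection.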

Variant | 8OG:A repair function score
P377A | -0.486
A203S | -0.0724
A203P | 0.109
G356R | -0.153
G293A | -0.0268
V500T | 0.02
T204M | -0.111
R175F | -0.197
C216E | -0.808
R219Y | -0.556
G248E | -0.978
T112Q | -0.591
C489Y | 0.00164
V104R | -1.11
R467M | -0.057
S74R | 0.00425
Q450V | 0.073
K337Q | -0.0917
K390C | 0.0921
L83G | -0.971
H454N | 0.24
F453A | -0.66
S226D | -0.146
R98P | -0.714

Variant | 8OG:A repair function score
M462N | -0.31
R467Y | -0.0417
T191S | -0.16
E45R | 0.0409
T439K | 0.00137
H514R | -0.0107
Q472D | 0.0112
Q50M | -0.0659
L370D | -1
N251Q | -0.901
Q233F | 0.305
W447L | -0.567
S294Y | -0.0109
Q232I | -0.459
L408H | -1.11
Q282E | -0.0248
N143I | -0.0751
G248W | -0.937
G293D | -0.124
A305H | -0.0126
L373P | -1.03
I421H | -0.201
P494G | -0.0242
L387H | -0.744

Variant | 8OG:A repair function score
L134P | -1.26
Q202P | -0.931
T228M | 0.0193
R219N | -0.877
L180F | -0.576
L229F | -0.0261
L145T | -0.001
H416N | -0.342
P352F | -0.188
D82F | -0.22
W146N | -0.671
S483R | 0.0251
L183P | -0.826
E342R | 0.0113
L149K | -1.17
P474T | 0.0285
L73Q | -0.236
G170C | -0.00944
L289R | -0.0177
C347M | -0.15
L229I | -0.0293
H514A | -0.021
L72I | -0.0959
L361N | -0.575

Variant | 8OG:A repair function score
P339E | -0.374
R60L | 0.00645
V414I | -0.137
G471H | 0.00339
G123L | 0.0662
S294I | 0.00404
K463P | -0.617
L109S | -0.213
D322Y | -0.0375
L215V | -0.573
S335I | -0.000462
V274I | -0.0406
Q310C | 0.0147
N366P | -0.104
D249P | -0.588
V441E | -0.161
S335L | -0.0705
T179W | -0.0647
E319V | -0.0112
G39D | 0.118
I221D | -1.02
R98N | -0.122
A137W | -1.02
Q323D | 0.0164

Variant | 8OG:A repair function score
L393R | 0.00361
A259T | -0.329
R213T | -1.01
P443A | 0.0799
H312M | -0.0518
T436G | -0.0926
W124A | -0.577
G188V | -1.04
Q470C | -0.00083
W85I | -0.792
W128L | -0.0988
L134Q | -1.24
H312P | -0.0124
Q288N | 0.0202
A245K | -0.0553
E375C | -0.342
S384V | -0.0122
S105R | -0.765
A51K | 0.124
E160M | 0.0471
Q323F | -0.0491
T204I | 0.0296
V379D | -0.793
A89H | 0.00693

Variant | 8OG:A repair function score
L423S | 0.137
S298Y | -0.0154
Q472M | -0.0129
A192Q | -1.03
L215S | -0.957
E350F | -0.339
H508T | 0.0103
E433L | -0.0355
T228F | -0.051
L237I | 0.105
Q239N | 0.162
D243W | -0.67
K422I | -0.297
V218L | -0.178
Q132C | -0.154
V48H | 0.0666
R336M | -0.117
L423E | -0.289
S197A | -0.271
L393S | -0.405
Q50L | -0.0733
W85S | -1.22
R98I | -0.145
A520R | 0.027

Variant | 8OG:A repair function score
D133T | -0.0145
G353Y | -0.16
R340P | -0.328
F376G | -1.2
E433P | 0.219
R279H | -0.0508
T204Y | -0.127
D300V | -0.0916
K80W | -0.847
A259L | -0.889
D502H | -0.0311
V206P | -0.905
G475F | -0.00573
P84S | -0.324
E106K | -1.45
D77M | -0.0782
Q202C | 0.0136
I195V | -0.0879
S490T | 0.0117
E385W | 0.109
V104P | -1.01
A147C | -0.226
Q144G | -0.106
